Results on two molecules are retold here after patent US20200016201A1.

Assay [1] concerns the target HLA-DR on human cells (human). As to the kind of experiment: avidity constant on tonsil lymphocytes.
For assay [2], the target named is HLA-DR on human cells (human). As to the kind of experiment: avidity constant, Scatchard plot analysis on the target tumor cell line (ARH-77).

B1: Lym-2 (antibody, V domains shown)
VH: EVQLEESGGGLVQPGGSMKLSCVASGFTFSNYWMNWVRQSPEKGLEWVAEIRFKSHNYATHFAESVKGRFTISRDDSKSSVYLQMNNLRAEDTGIYYCTRRIGNSDYDWWYFDVWGAGTSVTVSS
VL: DIVMTQSHKFMSTSVGDRVSVTCKASQNVGNNVAWYQQKPGQSPKVLIYSASYRYSGVPDRFTGSGSGTDFTLTISNVQSEDLAEYFCQQYNTYPFTFGSGTKLEIK
B1: the Ka in assay [1] stood at 1.23e+08 M⁻¹; in assay [2], 2.33e+08 M⁻¹.

B2: Lym-1 (antibody, V domains shown)
VH: QLKESGPGLVAPSQSLSITCTISGFSLTSYGVHWVRQPPGKGLEWLVVIWSDGSTTYNSALKSRLSISKDNSKSQVFLKMNSLQTDDTAIYYCASHYGSTLAFASWGHGTLVTVSA
VL: DIQMTQSPASLSASVGETVTIICRASVNIYSYLAWYQQKQGKSPQLLVYNAKILAEGVPSRFSGSGSGTQFSLKINSLQPEDFGSYYCQHHYGTFTFGSGTKLEIK
In assay [1], B2 had a Ka of 8.8e+07 M⁻¹.
